From patent publication US20160207991A1 (Pfizer, published 2016)
Numbering of substitutions follows the chain as printed.

T1: human brain-derived neurotrophic factor (BDNF) (human, UniProt P23560 129-247)
T1 sequence: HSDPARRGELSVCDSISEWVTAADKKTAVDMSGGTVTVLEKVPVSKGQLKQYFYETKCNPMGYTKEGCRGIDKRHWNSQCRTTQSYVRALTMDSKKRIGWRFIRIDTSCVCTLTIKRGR

T2: recombinant CXCL3 (Homo sapiens (Human), UniProt P19876 35-107)
T2 sequence: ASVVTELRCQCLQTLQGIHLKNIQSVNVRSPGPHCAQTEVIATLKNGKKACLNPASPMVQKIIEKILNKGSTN

T3: p75NTR receptor (immobilised on the SPR flow cell) (Homo sapiens (Human), UniProt P08138 29-250)
T3 construct: also called p75 neurotrophic receptor; LNGFR
T3 sequence: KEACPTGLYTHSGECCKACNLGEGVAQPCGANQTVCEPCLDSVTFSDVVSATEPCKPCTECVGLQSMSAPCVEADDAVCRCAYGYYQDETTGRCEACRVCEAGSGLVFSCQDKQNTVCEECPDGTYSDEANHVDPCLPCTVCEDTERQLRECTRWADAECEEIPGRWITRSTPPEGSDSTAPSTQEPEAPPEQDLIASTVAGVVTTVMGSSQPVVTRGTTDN

T4: recombinant human CXCL10 (human, UniProt P02778 22-98)
T4 sequence (looked up): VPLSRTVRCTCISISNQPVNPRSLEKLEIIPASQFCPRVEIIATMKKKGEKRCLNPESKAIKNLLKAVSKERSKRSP

T5: recombinant human CXCL13 (human, UniProt O43927 23-109)
T5 sequence (looked up): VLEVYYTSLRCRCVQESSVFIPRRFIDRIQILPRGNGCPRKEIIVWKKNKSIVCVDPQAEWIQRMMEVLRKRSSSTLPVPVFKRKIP

T6: recombinant human CXCL9 (human, UniProt Q07325 23-125)
T6 sequence (looked up): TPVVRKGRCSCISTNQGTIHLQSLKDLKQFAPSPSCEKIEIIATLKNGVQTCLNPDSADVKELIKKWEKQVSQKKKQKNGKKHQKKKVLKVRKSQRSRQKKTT

T7: recombinant human neurotrophin-4 (human, UniProt P34130 81-210)
T7 construct: also called NT4; NT-4
T7 sequence (looked up): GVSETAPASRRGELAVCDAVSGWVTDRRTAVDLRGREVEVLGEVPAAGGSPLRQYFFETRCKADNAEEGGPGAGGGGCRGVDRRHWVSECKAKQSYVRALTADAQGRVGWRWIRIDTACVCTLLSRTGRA

T8: recombinant human neurotrophin-3 (human, UniProt P20783 139-257)
T8 construct: also called NT3; NT-3
T8 sequence (looked up): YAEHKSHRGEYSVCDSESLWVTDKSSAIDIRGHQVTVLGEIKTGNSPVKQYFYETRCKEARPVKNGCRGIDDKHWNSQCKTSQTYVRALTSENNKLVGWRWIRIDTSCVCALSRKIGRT

T9: endogenous rat BDNF in plasma (rat, UniProt P23363 131-249, limits assumed)
T9 construct: also called endogenous BDNF
T9 sequence (looked up): T1 sequence

B1: humanised affinity matured anti-BDNF antibody B30 (antibody, V domains shown)
VH: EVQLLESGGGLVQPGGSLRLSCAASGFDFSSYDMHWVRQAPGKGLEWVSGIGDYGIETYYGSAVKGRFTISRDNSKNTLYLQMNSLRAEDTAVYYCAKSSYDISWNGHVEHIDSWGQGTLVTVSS
VL: SSELTQPPAVSVALGQTVRITCSGAGSGYGYGWYQQKPGQAPVTVIYSNDKRPSGIPDRFSGSSSGNTASLTITGAQAEDEADYYCGTYVSAYYGYAIFGGGTKLTVL
B2: humanised affinity-optimized anti-BDNF antibody B20 (antibody, V domains shown)
VH: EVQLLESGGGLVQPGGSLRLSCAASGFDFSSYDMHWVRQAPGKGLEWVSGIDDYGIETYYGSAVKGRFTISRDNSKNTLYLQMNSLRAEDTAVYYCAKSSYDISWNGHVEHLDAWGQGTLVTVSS
VL: B1 VL with V90D, A92T, Y93D, Y94A
B3: humanised affinity-optimized anti-BDNF antibody B18 (antibody, V domains shown)
VH: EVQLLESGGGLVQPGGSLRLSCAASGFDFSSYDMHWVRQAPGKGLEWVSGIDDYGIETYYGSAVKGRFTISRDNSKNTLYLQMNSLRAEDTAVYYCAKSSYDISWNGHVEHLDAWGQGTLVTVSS
VL: B1 VL with S23Q, A25D, G26S, S48G, N49K, D50N, K51N
B4: anti-BDNF antibody R3BH1 (chicken-human chimeric IgG) (antibody, V domains shown)
VH: AVTLDESGGGLQTPGGGLSLVCKASGFDFSSYDMHWVRQAPGKGLEWVAGIDDGGSDTYYGSAVKGRATISRDNGQSTVRLQLNNLRAEDTGTYYCAKSSYDISWNGHVENIDAWGHGTEVIVSS
VL: ALTQPTSVSTNLGGTVEITCSGAGSGYGYGWFQQKSPGSAPVTVIYSNDKRPSDIPSRFSGSKSGSTGTLTITGVQAEDEAVYFCGTYDSTDAGYAIFGAGTTLTVL
notes: also called R3BH1 IgG; chimeric R3BH1

Experiments:
[1] = molecular target: T1, human brain-derived neurotrophic factor …; test: cell-based or functional assay
[2] = molecular target: T1, human brain-derived neurotrophic factor …; test: competition HTRF (Example 12): 1 nM biotinylated human BDNF, europium cryptate labelled H1, SA-XL665, unlabelled antibody titrated; competitor: labelled H1; x axis is log10 of pM by the text
Method: Reagents were added sequentially on the MiniTrak Liquid Handling Platform (Perkin-Elmer) into 384-well low volume black plates (Nunc).

[3] = molecular target: T2, recombinant CXCL3; test: ELISA (Example 14, conditions of Example 7): plate coated with 1 µg/ml of the antigen, antibody at the highest concentration of the titration, anti-IgG-HRP, TMB
[4] = molecular target: T3, p75NTR receptor (immobilised on the SPR …); test: as above
[5] = molecular target: T10, recombinant human beta-NGF (human, UniProt P01138 122-241); test: as above
T10 construct: also called β-NGF; Nerve Growth Factor

[6] = molecular target: T4, recombinant human CXCL10; test: as above
[7] = molecular target: T5, recombinant human CXCL13; test: as above
[8] = molecular target: T6, recombinant human CXCL9; test: as above
[9] = molecular target: T7, recombinant human neurotrophin-4; test: as above
[10] = molecular target: T8, recombinant human neurotrophin-3; test: as above
[11] = molecular target: T9, endogenous rat BDNF in plasma; test: ligand-binding assay (Gyrolab) for total BDNF in plasma of dosed rats
Method: Sample concentrations were determined by interpolation from a standard curve that was fitted using a 5-parameter logistic curve fit with 1/y² response weighting.

[12] = molecular target: T1, human brain-derived neurotrophic factor …; test: SPR, Biacore T200; immobilised human BDNF; 37 C
Method: (§1) All SPR experiments were performed at 37° C. and a data collection rate of 1 Hz with HBS-EP+ used as both the sample and running buffer. The resulting sensorgrams were double referenced with buffer injections and a non-derivatized flow cell surface. Rate constants were determined by applying a 1:1 Langmuir binding model using the T200 evaluation software v1.0 and the equation KD=kd/kₐ.

[13] = molecular target: T1, human brain-derived neurotrophic factor …; test: SPR, Biacore T200; human BDNF amine-coupled to CM5, antibody injected; 1:1 Langmuir; 37 C
Method: as §1
The dissociation phase for the highest concentration of antibody was extended to 4000 seconds to achieve a signal decay minimum of 5%. The kinetic rate constants were determined using a Langmuir 1:1 binding model and T200 evaluation software v1.0.

[14] = molecular target: T3, p75NTR receptor (immobilised on the SPR …); test: ELISA (Example 7): plate coated with 1 µg/ml of the antigen, antibody at the highest concentration of the titration, anti-IgG-HRP, TMB
Method: (§2) NUNC plates were coated with 1 μg/ml of a neurotrophin or chemokine in 1×PBS overnight. […] Plates were washed and a 1/5000 dilution of anti-IgG-HRP (horse radish peroxidase) in blocking buffer was added for 1 h (100 μL total volume). Plates were washed and developed by addition of 3,3′,5,5′-Tetramethylbenzidine (TMB) substrate and subsequently stopped with phosphoric acid.

[15] = molecular target: T10, recombinant human beta-NGF; test: as above
Method: as §2

[16] = molecular target: T4, recombinant human CXCL10; test: as above
Method: as §2

[17] = molecular target: T5, recombinant human CXCL13; test: as above
Method: as §2

[18] = molecular target: T6, recombinant human CXCL9; test: as above
Method: as §2

[19] = molecular target: T7, recombinant human neurotrophin-4; test: as above
Method: as §2

[20] = molecular target: T8, recombinant human neurotrophin-3; test: as above
Method: as §2

[21] = molecular target: T1, human brain-derived neurotrophic factor …; test: SPR, Biacore T200; immobilised human BDNF; 37 C (same data as Table 10)
Method: as §1

T10 sequence (P01138 122-241 limits assumed): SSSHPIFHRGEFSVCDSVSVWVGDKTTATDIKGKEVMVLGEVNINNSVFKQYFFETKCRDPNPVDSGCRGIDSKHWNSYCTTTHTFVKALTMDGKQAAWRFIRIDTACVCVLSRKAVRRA

Binder	PathHunter pTrkB assay in U2OS TrkB/p75NTR cells, 300 pM BDNF [1] [nM]	pERK assay in U2OS TrkB/p75NTR cells, 150 pM BDNF [1] [nM]	IC50 (read off the curve) [2] [nM]	binding result [3]	binding result [4]	binding result [5]	binding result [6]	binding result [7]	binding result [8]	binding result [9]	binding result [10]	binding result [11]	Kd [12] [nM]	T1/2 [12] [h]	koff [12] [s⁻¹]	kon [12] [M⁻¹ s⁻¹]	other results
B1	0.54	1.3	~1	no binding (tested: 300 µg/mL)	no binding (tested: 300 µg/mL)	no binding (tested: 300 µg/mL)	no binding (tested: 300 µg/mL)	no binding (tested: 300 µg/mL)	no binding (tested: 300 µg/mL)	no binding (tested: 300 µg/mL)	no binding (tested: 300 µg/mL)	binds	0.12	5.58	3.5e-05	290000	–
B2	0.31	1.1	~1	no binding (tested: 300 µg/mL)	no binding (tested: 300 µg/mL)	no binding (tested: 300 µg/mL)	no binding (tested: 300 µg/mL)	no binding (tested: 300 µg/mL)	no binding (tested: 300 µg/mL)	no binding (tested: 300 µg/mL)	no binding (tested: 300 µg/mL)	–	0.55	1.26	0.000154	280000	–
B3	0.29	0.95	~0.6	no binding (tested: 300 µg/mL)	no binding (tested: 300 µg/mL)	no binding (tested: 300 µg/mL)	no binding (tested: 300 µg/mL)	no binding (tested: 300 µg/mL)	no binding (tested: 300 µg/mL)	no binding (tested: 300 µg/mL)	no binding (tested: 300 µg/mL)	–	0.0994	7.03	2.8e-05	290000	–
B4	–	–	–	–	–	–	–	–	–	–	–	binds	–	–	–	–	Kd [13]: 34.4 nM; T1/2 [13]: 1.13 min; koff [13]: 0.0103 s⁻¹; kon [13]: 303000 M⁻¹ s⁻¹; binding result [14]: no binding (tested: 300 µg/mL); binding result [15]: no binding (tested: 300 µg/mL); binding result [16]: no binding (tested: 300 µg/mL); binding result [17]: no binding (tested: 300 µg/mL); binding result [18]: no binding (tested: 300 µg/mL); binding result [19]: no binding (tested: 300 µg/mL); binding result [20]: no binding (tested: 300 µg/mL); Kd [21]: 34.4 nM; T1/2 [21]: 1.13 min; koff [21]: 0.0103 s⁻¹; kon [21]: 300000 M⁻¹ s⁻¹
